Measured values taken from paper PMC8884700, “Selection and Modelling of a New Single-Domain Intrabody Against TDP-43” (Frontiers in Molecular Biosciences, 2021).

Tests used:
[1] = molecular target: T1, LexA fragment of RRMs (160-208) (Homo sapiens (species of cDNA not …, UniProt Q13148)); test: two-hybrid; IACT / in vivo epitope mapping in L40 yeast; LexA-fused bait, VP16-fused VHH prey; growth on SD-WHL (HIS3); liquid beta-gal (LacZ) for the full-length bait; conditions: partners not purified
T1 construct: TDP-43, residues 160-208, containing the linker between RRM1 and RRM2; also called RRMs bait; source: yeast two-hybrid fusion (L40 yeast)
T1 chain: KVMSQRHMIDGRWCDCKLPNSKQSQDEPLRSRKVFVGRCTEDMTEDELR

[2] = molecular target: T2, LexA-RRM2 (192-258) (Homo sapiens (species of cDNA not …, UniProt Q13148)); test: as above; conditions: partners not purified
T2 construct: TDP-43, RRM2, residues 192-258; also called RRM2 bait; source: yeast two-hybrid fusion (L40 yeast)

[3] = molecular target: T3, LexA-TDP-43 full length (residues 1-414) (Homo sapiens (species of cDNA not …, UniProt Q13148)); test: as above; conditions: partners not purified
T3 construct: also called TDP-43 bait; source: yeast two-hybrid fusion (L40 yeast, pMicBD1 bait plasmid)

[4] = molecular target: T4, LexA-N-term + RRM1-2 (residues 1-258) (Homo sapiens (species of cDNA not …, UniProt Q13148)); test: as above; conditions: partners not purified
T4 construct: TDP-43, residues 1-258 (N-terminus plus RRM1 and RRM2); also called LexA- N-Term + RRM1-2 (1-258); N-terminal half of TDP-43; source: yeast two-hybrid fusion (L40 yeast)

[5] = molecular target: T5, purified RRM2 of TDP-43 (Homo sapiens, UniProt Q13148); test: ELISA; indirect ELISA; TDP-43 fragments coated at 1 uM in carbonate buffer pH 9.6; VHH5 added at 1, 3, 5 and 10 uM, 2 h, room temperature; detected with anti-camelid VHH [HRP]; conditions: both partners purified
T5 construct: TDP-43, RRM2 domain; source: purified

[6] = molecular target: T6, purified RRM1-2 of TDP-43 (tandem RRM domains) (Homo sapiens, UniProt Q13148); test: ELISA; sandwich ELISA; VHH5 coated at 1, 3, 5 and 10 uM in carbonate buffer pH 9.6; TDP-43 fragments (10 ug/ml) added in PBS/BSA 1% pH 7.4, 2 h, room temperature; detected with rabbit anti-TDP-43 polyclonal and HRP secondary antibody; conditions: both partners purified
T6 construct: TDP-43, tandem RRM1 and RRM2 domains; Production and limits of the purified construct are not described; The docking used PDB 4bs2 (human TDP-43 tandem RRM1-2) as the putative antigen; source: purified

[7] = molecular target: T7, purified RRM1 of TDP-43 (Homo sapiens, UniProt Q13148); test: as above; conditions: both partners purified
T7 construct: TDP-43, RRM1 domain; source: purified

Measured: binding result

T4 sequence (Q13148 1-258): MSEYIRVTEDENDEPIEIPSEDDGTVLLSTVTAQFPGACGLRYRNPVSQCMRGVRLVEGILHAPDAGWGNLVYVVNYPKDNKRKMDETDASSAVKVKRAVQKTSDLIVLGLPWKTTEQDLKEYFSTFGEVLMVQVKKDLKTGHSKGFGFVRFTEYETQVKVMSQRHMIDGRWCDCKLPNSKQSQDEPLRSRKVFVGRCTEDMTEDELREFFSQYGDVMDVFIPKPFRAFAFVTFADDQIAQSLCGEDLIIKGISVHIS
T2 sequence (Q13148 192-258): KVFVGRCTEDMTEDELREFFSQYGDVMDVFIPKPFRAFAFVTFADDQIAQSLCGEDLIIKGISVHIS
T5 sequence (Q13148 whole entry, looked up, the tested form may be a part): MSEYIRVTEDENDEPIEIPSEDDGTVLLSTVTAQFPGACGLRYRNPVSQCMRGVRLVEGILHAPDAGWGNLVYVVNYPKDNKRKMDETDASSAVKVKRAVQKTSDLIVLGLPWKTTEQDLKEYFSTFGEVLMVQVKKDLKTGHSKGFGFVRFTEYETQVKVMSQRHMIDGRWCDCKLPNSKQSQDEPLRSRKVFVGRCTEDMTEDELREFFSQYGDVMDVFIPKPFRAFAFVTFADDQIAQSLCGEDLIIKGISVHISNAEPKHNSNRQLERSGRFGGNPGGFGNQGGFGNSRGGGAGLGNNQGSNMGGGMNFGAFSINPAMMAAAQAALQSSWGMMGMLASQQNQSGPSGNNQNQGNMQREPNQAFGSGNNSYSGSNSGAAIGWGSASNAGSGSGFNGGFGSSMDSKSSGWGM
T3 sequence (Q13148 whole entry, the tested form may be a part): as the sequence (Q13148 whole entry, looked up, the tested form may be a part) above

B1: anti-TDP-43 VHH5 intrabody (VP16 activation domain fusion, prey in pLinker220) (VHH)
VHH: KVQLVESGGGSVQIGGSLRLSCRISEGSGNKYVMAWFRQAPGQEREFVGVISWSGTRTHYADSVRGRFTISRMDNTAYLQMDSLTPDDSGVYYCAASVSVPPFLELTAAHFGSWGQGTQVRVGS
notes: selected from a naive llama VHH SPLINT library; The modelling sections number residues 1-135, with H3 at 94-114; source: yeast two-hybrid fusion (L40 yeast, pLinker220 prey plasmid)
binds: [1] | [2] | [3] | [4]

B2: VHH5-I15A_M75K (VHH)
VHH: KVQLVESGGGSVQAGGSLRLSCRISEGSGNKYVMAWFRQAPGQEREFVGVISWSGTRTHYADSVRGRFTISRKDNTAYLQMDSLTPDDSGVYYCAASVSVPPFLELTAAHFGSWGQGTQVRVGS
notes: also called purified VHH5; double mutant; not shown: SUMO, N-terminal, cleaved
binds: [5] | [6] | [7]
